Assay results published in article PMC2674214 (PLoS ONE, 2009).

Assays:
[1] = target: T1, hemagglutinin (HA) of A/Anhui/1/2005 (H5N1) virus (Influenza A virus A/Anhui/1/2005 (H5N1), UniProt Q1WDM0); test: ELISA; conditions: one partner purified
[2] = target: T1, hemagglutinin (HA) of A/Anhui/1/2005 …; test: immunostaining of cells or tissue; conditions: one partner purified
[3] = target: T2, rHA1 of AH/1/05 virus (Influenza A virus A/Anhui/1/2005 (H5N1), UniProt Q1WDM0, strain); test: immunostaining of cells or tissue; conditions: one partner purified
T2 construct: source: SF-9 cells infected with recombinant baculovirus (pAcUW51), on fixed cells

[4] = target: T3, rHA of AH/1/05 virus (full length HA) (Influenza A virus A/Anhui/1/2005 (H5N1), UniProt Q1WDM0); test: immunostaining of cells or tissue; conditions: one partner purified
T3 construct: source: SF-9 cells infected with recombinant baculovirus (pAcUW51), on fixed cells

[5] = target: T4, rHA2 of AH/1/05 virus (Influenza A virus A/Anhui/1/2005 (H5N1), UniProt Q1WDM0, strain); test: immunostaining of cells or tissue; conditions: one partner purified
T4 construct: source: SF-9 cells infected with recombinant baculovirus (pAcUW51), on fixed cells

[6] = target: rHA of clade 0 H5N1 virus A/HongKong/156/97 (Influenza A virus A/Hong Kong/156/1997 …, UniProt O56140); test: ELISA

Row | Binder | binding result [1] | binding result [2] | binding result [3] | binding result [4] | binding result [5] | binding result [6]
1 | AVFluFab03 (Fab, V domains shown, also called Fab clone representing 25 of the 43 selected Fab clones; source: phagemid vector pComb3H, crude Fab antibody preparations) VH: LESGGGLVQPGGSLRVSCTNSGFTFSDYAMSWVRQAPGKGLEWVSAISGNGGSSTYYADSVKGRFTISRDNSKNTMYLQMNSLRAEDTAVYYCVRDDSYDGGGQYGLHNWFDSWGQGTLVTV VL: ELTQPPSVSGAPGQRVTISCTGSSSNIGAGYDVHWYQQLPGTAPKLLIYGNSNRPSGVPDRFSGSKSGTSASLAITGLQAEDEADYYCQSYDSSLVVFGGGTKLTVL | binds | – | – | – | – | –
2 | AVFluIgG03 (antibody, V domains shown, also called rhAb AVFluIgG03; AVFluIg03; source: SF9 cells, purified on a Protein A column) VH: LESGGGLVQPGGSLRVSCTNSGFTFSDYAMSWVRQAPGKGLEWVSAISGNGGSSTYYADSVKGRFTISRDNSKNTMYLQMNSLRAEDTAVYYCVRDDSYDGGGQYGLHNWFDSWGQGTLVTV VL: ELTQPPSVSGAPGQRVTISCTGSSSNIGAGYDVHWYQQLPGTAPKLLIYGNSNRPSGVPDRFSGSKSGTSASLAITGLQAEDEADYYCQSYDSSLVVFGGGTKLTVL | – | binds | binds | binds | no binding | no binding
